The values that follow come from paper PMC7898620.

The target in test [1] is Rugosity and biofilm structure modulator A (RbmA), wild type (Vibrio cholerae). In words: AUC; sedimentation velocity, 40,000 RPM, RbmA 5 mg/ml, absorbance at 250 nm and Rayleigh interference; without MgPO4.
For test [2] the target is unchanged. The experiment in a line: SEC-MALS; ENrich SEC 70 column, 20 mM Tris pH 8.0, 200 mM NaCl, 2 mM DTT, 0.02% NaN3, 240-360 ug protein injected; without MgPO4. Background: SEC sorts molecules by how far they enter the pores of the column.
For test [3] the target is unchanged. In words: time-resolved SAXS; stopped-flow mixing, 5 mg/ml RbmA in 20 mM Tris/HCl pH 8, 100 mM NaCl with 10 mM potassium phosphate and 2.5 mM MgCl2; followed for 3 hr.
The next test addresses RbmA R219A mutant. The experiment in a line: SEC-MALS. Conditions: parent: est. 58; read off a plot.
Test [4] concerns the target RbmA W119G mutant (Vibrio cholerae). In words: SEC-SAXS; analytical Superdex 200 increase 3.2/300 column in line with SAXS, 0.075 ml/min; without MgPO4. To be noted: scale: mol monomer per mol dimer.
A further test has as its target RbmA E160A mutant. In words: SEC-MALS. Conditions: parent: est. 58; read off a plot.
For a further test, the target named is RbmA W119G mutant. The experiment in a line: SEC-MALS. Conditions: parent: est. 58; read off a plot.
The target of test [5] is RbmA R219A mutant (Vibrio cholerae). In words: SEC-SAXS; analytical Superdex 200 increase 3.2/300 column in line with SAXS, 0.075 ml/min; without MgPO4. Conditions: scale: mol monomer per mol dimer.
The target of the next test is RbmA W222G mutant. The experiment in a line: SEC-MALS. To be noted: parent: est. 58; read off a plot.

Where “and” joins values, the source holds several entries; their conditions need not be identical. Equal entries are not always repeated.

One may read the stoichiometry N as a count of units in the complex or per binding partner. With “Rugosity and biofilm structure modulator A (RbmA), wild type (natural protein)”, the stoichiometry N is 4 and 2 in [1]; 2 in test [2]; 6 in test [3].

Take “Rugosity and biofilm structure modulator A (RbmA), wild type R219A”: in the test with RbmA R219A mutant, the other: SEC-MALS average molecular weight was 36 kg/mol.

Turning to RbmA W119G mutant (natural protein), in test [4], the dimer:monomer molar ratio was 2.5.

As for “Rugosity and biofilm structure modulator A (RbmA), wild type E160A”, the other: SEC-MALS average molecular weight in the test with RbmA E160A mutant is 57 kg/mol.

On to “Rugosity and biofilm structure modulator A (RbmA), wild type W119G”, for which the other: SEC-MALS average molecular weight in the test with RbmA W119G mutant came to 49 kg/mol.

With RbmA R219A mutant (natural protein), in [5], the monomer:dimer molar ratio was determined as 3.5.

As for “Rugosity and biofilm structure modulator A (RbmA), wild type W222G”, the other: SEC-MALS average molecular weight with RbmA W222G mutant was found to be 58 kg/mol.
